From article PMC4645341 (Journal of Virology, 2015)
Where no end group is shown, it is not given here.

Tests used:
[1] = biological target: MPER-TM1 (HIV-1 (strain not stated)); test: ELISA
[2] = biological target: Recombinant gp41 (r-gp41; HIV-1MN isolate) (HIV-1 isolate MN, UniProt P05877); test: ELISA
4E10 WT Fab = test: SPR

Recombinant gp41 (r-gp41; HIV-1MN isolate), sequence (P05877 whole entry, looked up): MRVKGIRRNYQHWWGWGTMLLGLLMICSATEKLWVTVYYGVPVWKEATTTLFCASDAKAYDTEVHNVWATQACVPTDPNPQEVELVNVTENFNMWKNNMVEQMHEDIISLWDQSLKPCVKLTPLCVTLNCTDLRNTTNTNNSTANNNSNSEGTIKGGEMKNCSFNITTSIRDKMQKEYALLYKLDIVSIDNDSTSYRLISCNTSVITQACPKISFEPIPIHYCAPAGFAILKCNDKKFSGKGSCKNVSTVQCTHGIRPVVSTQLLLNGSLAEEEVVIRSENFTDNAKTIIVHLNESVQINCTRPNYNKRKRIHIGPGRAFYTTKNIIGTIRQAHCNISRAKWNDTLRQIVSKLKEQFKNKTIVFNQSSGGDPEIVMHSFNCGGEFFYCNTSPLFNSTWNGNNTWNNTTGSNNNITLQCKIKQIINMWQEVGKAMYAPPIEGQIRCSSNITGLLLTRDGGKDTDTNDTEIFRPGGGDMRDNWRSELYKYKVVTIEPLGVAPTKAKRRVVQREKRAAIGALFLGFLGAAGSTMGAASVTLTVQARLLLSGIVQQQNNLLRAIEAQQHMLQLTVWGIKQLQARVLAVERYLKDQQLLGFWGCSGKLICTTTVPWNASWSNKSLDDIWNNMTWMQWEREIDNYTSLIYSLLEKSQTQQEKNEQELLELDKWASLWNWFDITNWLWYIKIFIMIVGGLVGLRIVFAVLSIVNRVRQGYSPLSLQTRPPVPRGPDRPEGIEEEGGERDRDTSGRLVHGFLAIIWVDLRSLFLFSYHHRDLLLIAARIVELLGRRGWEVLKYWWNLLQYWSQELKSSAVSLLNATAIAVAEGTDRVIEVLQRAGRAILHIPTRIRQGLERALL

With 4E10 IgG1 MAb (antibody) as the molecule, how does the EC50 [1] read?
Its EC50 is 0.1 nM.

With 4E10 WT Fab as the molecule, how does the EC50 [1] read?
Its EC50 is 1 nM.

B1: 4E10 WDWD Fab (Fab, V domains shown)
VH: VQLVQSGAEVKRPGSSVTVSCKASGGSFSTYALSWVRQAPGRGLEWMGGVIPLLTITNYAPRFQGRITITADRSTSTAYLELNSLRPEDTAVYYCAREGTTGDGDLGKPIGAFAHWGQGTLVTVSS
VL: EIVLTQSPGTQSLSPGERATLSCRASQSVGNNKLAWYQQRPGQAPRLLIYGASSRPSGVADRFSGSGSGTDFTLTISRLEPEDFAVYYCQQYGQSLSTFGQGTKVEVK
Does B1 bind [2]?
Result: binds

B2: 4E10ep variant (…-RRR) (peptide)
peptide: NWFDITNWLWYIRRRR-NH2
How did the Kd (4E10 WT Fab) turn out when B2 was run?
Its Kd is 21 nM.

What about the dH (van't Hoff) (4E10 WT Fab) of the same molecule?
Its dH (van't Hoff) is -11.5 kcal/mol.

What about the koff (4E10 WT Fab) of the same molecule?
The koff was 0.0011 s⁻¹.
